Assay results published in US20230407297A1, “BIOENGINEERED WNT5A THERAPEUTICS FOR ADVANCED CANCERS” (The Regents of the University of California, priority 2020, published 2023).
Entries after “also recorded” stand apart in the source; their conditions may differ.

Assays:
PS1172 CRC cells = assay: PS1172 CRC cell number, combination with enzalutamide; assay type: cell-based; details: Wnt5a siRNA + enzalutamide 20 μM, 3 days and 6 days
Procedure: (§1) FIGS. 5A-5B. […] Resistant C4-2B MDVR and PS1172 CRC prostate cancer cells were treated with either enzalutamide (Enza) or Wnt5a siRNA (#1) or the combination (#1+Enza) for three days and 5 days, and the cell numbers were determined.
(§2) Enzalutamide resistant C4-2B MDVR cells and PS1172 CRC cells were treated with either enzalutamide (20 μM) or Wnt5a siRNA (#1) or their combination (enza+#1) for 3 days and 5 days (C4-2B MDVR cells) or 3 days and 6 days (PS1172 CRC cells), and the cell numbers were determined.

C4-2B MDVR cells = assay: C4-2B MDVR cell number, combination with antiandrogens; assay type: cell-based
Procedure: as §1
FIGS. 6A-6C. […] Resistant C4-2B MDVR prostate cancer cells were treated with either enzalutamide (Enza, 20 uM) or tRNA-1 (10 nM) or tRNA-2 (10 nM) or the combination (combination) for 3 days and 6 days, and the cell numbers were determined.
FIGS. 7A-7B. Combination of tRNA Wnt5a with antiandrogens in C4-2B MDVR cells. C4-2B MDVR cells were treated with tRNA Wnt5a and antiandrogens such as apalutamide (Apa), darolutamide (Daro), enzalutamide (enza) individually or combination for 3 days and 6 days and the cell number was determined.
as §2
Resistant C4-2B MDVR prostate cancer cells were treated with either enzalutamide (Enza, 20 uM) or tRNA-1 (10 nM) or tRNA-2 (10 nM) or their combination for 3 days and 6 days, and the cell numbers were determined.
Knockdown of Wnt5a by tRNA-Wnt5a siRNA enhances anti-androgen (enzalutamide, apalutamide, darolutamide) treatments (FIG. 7A). Resistant C4-2B MDVR cells were treated with tRNA Wnt5a siRNA-2 and antiandrogens such as apalutamide (Apa), darolutamide (Daro), enzalutamide (enza) individually or their combination for 3 days and 6 days and the cell number was determined.

Wnt5A = Wnt5A expression in CWR22rv1 cells; assay type: cell-based
LuCaP 35CR PDX tumors = assay: LuCaP 35CR patient derived xenograft model, combination with enzalutamide (Example 3); assay type: in vivo, mouse; details: single treatment
From the text: (§3) FIGS. 9A-9E. Targeting Wnt5A by BERA-Wnt5a siRNA resensitizes LuCaP35CR PDX organoids and tumor growth to enzalutamide treatment. FIG. 9A: Organoids derived from the LuCaP PDX model were established in an ex vivo 3D Matrigel format and treated with bioengineered BERA-Wnt5a siRNA. […] FIG. 9D: Mouse body weight was unaffected by all of the treatments.
(§4) To examine if targeting Wnt5a enhances enzalutamide treatment in resistant prostate cancer, we examined the combinational effects of targeting Wnt5a and enzalutamide in an ex vivo model. Organoids derived from the LuCaP PDX model were established in an ex vivo 3D Matrigel format and treated with bioengineered BERA-Wnt5a siRNA. […] To further determine the anti-tumor effects of Wnt5a inhibition in vivo, we employed a LuCaP 35CR patient derived xenograft model, which was treated with bioengineered BERA-Wnt5a siRNA.

LuCaP 35CR organoids = assay: LuCaP 35CR organoids, ex vivo 3D Matrigel; assay type: cell-based; details: single treatment
From the text: as §3, §4

[1] = system: enzalutamide resistant CWR22rv1 cells; assay: CWR22rv1 cell growth, alone and with enzalutamide; assay type: cell-based; details: for improvement of enzalutamide treatment: CWR22rv1 cells, combined with enzalutamide; for cell growth: enzalutamide resistant CWR22rv1 cells, single agent
From the text: In addition to spectrometry and gel electrophoresis analyses of target Wnt5A-siRNAs during the purification described above, we conducted HPLC analysis to validate the purity of isolated siRNAs and LC-MS studies to verify RNA sequence and identify possible posttranscriptional modifications.

## Wnt5a siRNA (#1): siRNA specific to Wnt5a, 5′-ACAAACUGGUCCACGAUCUCCGUGC-3′ (expressed or natural sequence)
PS1172 CRC cells
  effect on enzalutamide treatment (cell numbers): synergistically enhanced enzalutamide treatment; also recorded: re-sensitize cells to enzalutamide
C4-2B MDVR cells; Wnt5a siRNA + enzalutamide 20 μM, 3 days and 5 days
  effect on enzalutamide treatment (cell numbers): synergistically enhanced enzalutamide treatment; also recorded: re-sensitize cells to enzalutamide
Wnt5A
  Wnt5A expression: downregulated Wnt5A expression

## CNC(=O)c1ccc(N2C(=S)N(c3ccc(C#N)c(C(F)(F)F)c3)C(=O)C2(C)C)cc1F [enzalutamide]
LuCaP 35CR PDX tumors
  PSA expression: without reaching significance
  tumor growth: resistant
LuCaP 35CR organoids
  organoid response: resistant

B1: tRNA-siWnt5A-1: bioengineered tRNA-pre-miRNA chimera (human tRNA Leu / pre-miR-34a carrier) carrying Wnt5a siRNA #1, FIG. 8A, SEQ ID NO:20 (nucleic acid)
chain: NNCNCAACANAAAAAACNNNGNGNAANACNNGNAACGCNGAANNCACCAGGANGGCCGAGNGGNNAAGGCGNNGGACNGGCCAGCNGNGAGNGNNNCNNACAAACUGGUCCACGAUCUCCGNGNGAGCAANAGNAAGGAAUGGAGAUCGGGAUCCAGUUUGCUAGAAGNGCNGCACGNNGNNGGCCCGANCCAANGGACANANGNCCGCGNGGGNNCGAACCCCACNCCNGGNACCACNGCAGANCCNNAGCGAAAGCNAAGGANNNNNNNN
modifications: modified_base (1)..(2) t or u; modified_base (4)..(4) t or u; modified_base (10)..(10) t or u; modified_base (18)..(20) t or u; modified_base (22)..(22) t or u; modified_base (24)..(24) t or u; modified_base (27)..(27) t or u; modified_base (30)..(31) t or u; modified_base (33)..(33) t or u; modified_base (39)..(39) t or u; modified_base (43)..(44) t or u; modified_base (53)..(53) t or u; modified
[1]
  improvement of enzalutamide treatment: improved enzalutamide treatment; also recorded: improved enza treatment
  cell growth: inhibited cell growth
C4-2B MDVR cells; chimera 10 nM + Enza 20 uM, 3 days and 6 days, listed as tRNA-Wnt5a siRNA-1
  effect on enzalutamide treatment (cell numbers): enhanced enzalutamide; also recorded: synergizes enzalutamide
Wnt5A
  Wnt5A expression: downregulated Wnt5A expression

B2: tRNA-siWnt5A-2: bioengineered tRNA-pre-miRNA chimera (human tRNA Leu / pre-miR-34a carrier) carrying Wnt5a siRNA #2, FIG. 8B, SEQ ID NO:21 (nucleic acid)
chain: NNCNCAACANAAAAAACNNNGNGNAANACNNGNAACGCNGAANNCACCAGGANGGCCGAGNGGNNAAGGCGNNGGACNGGCCAGCNGNGAGNGNNNCNNCUAGGAAGAACUUGGAAGACAUNGNGAGCAANAGNAAGGAAGUGUCUUCCGGUCUUUUCCUACUAGAAGNGCNGCACGNNGNNGGCCCGANCCAANGGACANANGNCCGCGNGGGNNCGAACCCCACNCCNGGNACCACNGCAGANCCNNAGCGAAAGCNAAGGANNNNNNNN
modifications: modified_base (1)..(2) t or u; modified_base (4)..(4) t or u; modified_base (10)..(10) t or u; modified_base (18)..(20) t or u; modified_base (22)..(22) t or u; modified_base (24)..(24) t or u; modified_base (27)..(27) t or u; modified_base (30)..(31) t or u; modified_base (33)..(33) t or u; modified_base (39)..(39) t or u; modified_base (43)..(44) t or u; modified_base (53)..(53) t or u; modified
[1]
  improvement of enzalutamide treatment: improved enzalutamide treatment; also recorded: improved enza treatment
  cell growth: inhibited cell growth
C4-2B MDVR cells; chimera 10 nM + Enza 20 uM, 3 days and 6 days, listed as tRNA-Wnt5a siRNA-2
  effect on enzalutamide treatment (cell numbers): enhanced enzalutamide; also recorded: synergizes enzalutamide
C4-2B MDVR cells; combination with apalutamide, 3 days and 6 days
  effect on apalutamide treatment (cell number): enhances
C4-2B MDVR cells; combination with darolutamide, 3 days and 6 days
  effect on darolutamide treatment (cell number): enhances
C4-2B MDVR cells; combination with enzalutamide, 3 days and 6 days
  effect on enzalutamide treatment (cell number): enhances
Wnt5A
  Wnt5A expression: downregulated Wnt5A expression
